Laboratory results reported in paper PMC10139410, “β-Cyclodextrin Polymer-Based Fluorescence Enhancement Strategy via Host–Guest Interaction for Sensitive Assay of SARS-CoV-2”.

Experiments:
[1] = molecular target: T1, SARS-CoV-2 nucleocapsid (N) protein (SARS-CoV-2, UniProt P0DTC9 1-419); test: circular dichroism; 1 uM each, 30 min at 37 C; 280 nm peak increased; Tris-HCl pH 7.6, 37 C, 30 min; 400 nM aptamer, 240 U/mL Exo I, 1.5 mg/mL beta-CDP; salt not in the material held
[2] = molecular target: T1, SARS-CoV-2 nucleocapsid (N) protein; test: Exo I protection, agarose gel; 600 nM N protein, 400 nM aptamer, 240 U/mL Exo I; labeled form inferred from text on pyrene; Tris-HCl pH 7.6, 37 C, 30 min; 400 nM aptamer, 240 U/mL Exo I, 1.5 mg/mL beta-CDP; salt not in the material held; conditions: label: 3'-pyrene

Binder	binding result [1]	binding result [2]
N protein-binding aptamer (ssDNA) DNA: GCTGGATGTCGCTTACGACAATATTCCTTAGGGGCACCGCTACATTGACACATCCAGC	binds	–
Pyrene-labeled N protein binding aptamer (ssDNA, 5'-SH (so in the source); 3'-pyrene) DNA: GCTGGATGTCGCTTACGACAATATTCCTTAGGGGCACCGCTACATTGACACATCCAGC	–	binds
